The assay deals with T.ni-cell expression optimized human P2X4 construct (P2X4^T.ni) (human) (UniProt Q99571).

Take “T.ni-cell expression optimized human P2X4 construct (P2X4^T.ni) (from UniProt Q99571-1 1-388) (receptor)”: the stoichiometry N stood at 3.

Values taken from article doi:10.1101/2025.09.05.674548.
